Test system: MS2 coat protein
Assay: apparent KD of MS2 coat protein; higher = weaker reporter binding
Conditions: Eterna round: R107
Method in brief: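 Illumina sequencing clusters were used for on-chip transcription of designed RNA switches. Titration with SNAP-549-labelled MS2 coat protein followed, in twofold steps from 0.7 or 1.5 nM to 3 µM in 100 mM Tris-HCl pH 7.5, 80 mM KCl, 4 mM MgCl2, without or with constant ligand. Apparent KD is each design's median of fits to normalised cluster binding curves.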

[1] = input ligand: theophylline 20 uM
[2] = input ligand: theophylline 2 mM
[3] = input ligand: tryptophan 2.4 mM

Row | Sequence | apparent KD of MS2 coat protein (input ligand: arginine 13.2 mM) | apparent KD of MS2 coat protein (input ligand: none) | apparent KD of MS2 coat protein [1] | apparent KD of MS2 coat protein [2] | apparent KD of MS2 coat protein [3]
1 | AUGACUUACGGGCGCCAUUUGUAAUAGGAAGGAGCGGCGAGAUAGCCAGGUAGGUCGCCUAUACAUGAGGAUCACCCAUGUCACC [Vegeorbe] | 66.8 nM | 120 nM | 103 nM | 81.8 nM | 112 nM
2 | GUACAUGAGGAUCACCCAUGUAUAGUUGAAGGAGCGACCGGAGGGUCAGGUAGGUCGCAGCACAUGGCGUAAACCCGUGUAUGCC [#1 Exclusion - Arginine A Attempt #24 (Inspired by Pi)] | 18.5 nM | 21.7 nM | 32.7 nM | 31.9 nM | 23 nM
3 | GGGCAAGAGGGAAGGAGCGUCAGCUGAGUCACAUGAGGAUCACCCAUGUAGCACAUAGUGUGACAGGUAGGUCGCCCUCUGCCCU [SS-ArgB5] | 11.1 nM | 9.19 nM | 14.4 nM | 11.4 nM | 11.6 nM
4 | CCGGUUAGGACGGCCGCCACUGUGGCUACGGUACAUGAGGAUCACCCAUGUUUGUGGUUGAUCUACAGGACCGGGUCCUGACACG [Eronri] | 124 nM | 247 nM | 1210 nM | 806 nM | 247 nM
5 | AACUGAAGCACCUUAUGCGGCGGCAAAACCCGAGGACCGGUACGGCCGCCACUCGAGUCGCAACAUGAGGAUCACCCAUGUGUAU [theeternabot_exclusion_MS2_Trp_A_30] | 32.5 nM |  | 55.8 nM | 78.8 nM | 
6 | AAUAUAUAUCACGAACUGUGGUGUAUGUUGCGAGGACCGGUACGGCCGCCACUCGACCGGUGGUACAUGAGGAUCACCCAUGUUG [XTryp A #10] | 35.6 nM | 57.2 nM | 82 nM | 56.4 nM | 58.1 nM
7 | GCGGACAUGAGGAUCACCCAUGUAAAUCCUCGAGGACCGGUACGGCCGCCACUCGAACGAGUGGCGCGCGCGCGCGCGCGCGCGC [aAa] | 25.3 nM | 40.5 nM | 119 nM | 78.9 nM | 45.2 nM
8 | UUUGAUUAGAGAAGGAGCGUGAUAUUUAUAUAGUGUGUAUGUACAUGAGGAUCACCCAUGUCACAGGUAGGUCGCUCUGAUAAGG [JR_Nu_ExcArginiB_Sub030] | 14.8 nM | 13.2 nM | 21.6 nM | 13.2 nM | 16.1 nM
9 | GGGCGCUAUCCCGCGAGGGAUAGCGUUCGGCGAGGACCGGUACGGCCGCCACUCGAACGAGUGGGUACAUGAGGAUCACCCAUGU [Faa] | 23.1 nM | 28 nM | 39.6 nM | 36.3 nM | 30.6 nM
10 | AGUGACUACAUCUGGAAUUAAGGUAGGGAAGGAGCGCGGUAAGACGCAGGUAGGUCGCCCUACAUGAGGAUCACCCAUGUGAUGU [XARG-A 28] | 75.5 nM | 354 nM | 264 nM | 331 nM | 232 nM
11 | UAACAUGAGGAUCACCCAUGUAUACUUAGUCGAGGACCGGUACGGCCGCCACUCGUACUUCAAGAUUUGGCGGAAAAUGUAUGUA [JR_ExcTryptoA_Sub021] | 14.2 nM |  | 15.6 nM | 12.5 nM | 
12 | GCAUCCUAGUCGGCCGCCACUACAACAUGAGGAUCACCCAUGUGUGGGAGAUCCGUCCUACGAAGUAGGACCGGGACUAGGAUGC [(T1)-(M1)-(M2)-(T)''-(M)'-(T)'-(T2)_Design5_2/18/17] | 110 nM |  | 337 nM | 324 nM | 
13 | ACAUUAGCCACGGCCGCCACUGCUUUAUGAUUAUAAGGAUUAAUGAACAUGAGGAUCACCCAUGUCAGGACCGGGUGCCUACCAU [SSTryp B #4] | 31.4 nM |  | 42.3 nM | 39 nM | 
14 | GGAUAGGACACGGCCGCCACUACCUAGGAUACUAGCAACAUUUGGGUGCACGAGGAUCACCCGUGUAGGACCGGGUGUCCUAUCG | 202 nM | 72.5 nM | 115 nM | 102 nM | 291 nM
15 | UUACAUGAGGAUCACCCAUGUCAUAAUGAUACCAGAUAGUUGAUGAUCCCUUGGCAGCAUAGUACCUAGACAUGUGAGUCAUAGG [Ab] | 116 nM |  | 130 nM |  | 76.8 nM
16 | GCCAUCGGCGGAAGCCGAUGGGAUACAGAAGGAGCGCGGAUUAACGCAGGUAGGUCGCUGGACAUGAGGAUCACCCAUGUAAUAG [SSAA #9] | 19.2 nM | 22.8 nM | 41.9 nM | 22.5 nM | 18.5 nM
17 | ACAUGAGGAUCACCCAUGUGCCGAGUUGAUACCAGACCCGCACUAGUCCCUUGGCAGCAACUACGUGUGGGACACCCAUGUUAAG [qaqmullin] | 29.1 nM |  | 85.5 nM |  | 47.9 nM
18 | AAUAAUAAGGCGGCCGCCACUAAACAUGAGGAUCACCCAUGUCUCGAGGGCUUGCGUUGGGAAAGUAGGACCGGGCCAAUAAUAA [Exclusion - Tryptophan B (Freestyle 7)] | 10.2 nM | 18.7 nM | 20.5 nM | 14.9 nM | 13.3 nM
19 | UCUUUCUAUUGUGAUACCAGACGUACAUGAGGAUCACCCAUGUUUCAUUCUUGUUUUAAAGUCCCUUGGCAGCACUAUUUGUUCG [JR_Nu_ExcTheophyB_Sub028] | 19.6 nM |  | 23.9 nM |  | 15.9 nM

Row | Sequence | apparent KD of MS2 coat protein (input ligand: arginine 13.2 mM) | apparent KD of MS2 coat protein (input ligand: none) | apparent KD of MS2 coat protein [1] | apparent KD of MS2 coat protein [2] | apparent KD of MS2 coat protein [3]
20 | GAUAUGGAAACAUGUCAGAUCCUUACCGGUCGAGGACCGGUACGGCCGCCACUCGGAAAUAUUGUACAUGAGGAUCACCCAUGUA [Ex Tryptophan A 18] | 14.1 nM |  | 16.1 nM | 16.1 nM | 
21 | UGUACAUGAGGAUCACCCAUGUUACAUGAUACCAGACAUGAGAGUGUCCCUUGGCAGCAUGGAGCUGAUACGGCGGGAAGCCGGA [#09 SameState-TheophyllineA] | 26.1 nM |  | 40.4 nM |  | 27 nM
22 | AACAUGAGGAUCACCCAUGUAUUGGGUGAUACCAGCCUGAAUAAUGGCCCUUGGCAGCACCGCGCUAACUUUAUGUCUGCGAAAC [Erterean] | 87.3 nM |  | 456 nM |  | 118 nM
23 | GACCGAUUAUAGUGCGAUUCUCUUGUGGAAGGAGCGCAGAGGACUGCAGGUAGGUCGCCACAUGAGGAUCACCCAUGUCAGGAUA [Esxebiat] | 65.6 nM | 183 nM | 89.6 nM | 708 nM | 10.6 nM
24 | CGUGGUGGGACGGAUACCAGCCACCGCGGCAACGCAACAUGAGGAUCACCCAUGUUGGGUGGCCCUUGGCAGCUGUCCUGCGACG [#1 Same State - Theophylline B Attempt #27 (HarryS)] | 11.5 nM | 11.7 nM | 11.6 nM | 11.7 nM | 10.1 nM
25 | CCGCCUGCCUCACAUGAGGAUCACCCAUGUCGAGGACCGGUACGGCCGCCACUCGUCGUCGGUAAUACAGGCAUUGAAUAAUAUA [Vetire] | 12.1 nM |  | 14.8 nM | 12.1 nM | 
26 | AUAUCUUCCACGGCCGCCACUGAAUGGUGCCCAAGGUCGAUCGCAGACAUGAGGAUCACCCAUGUCAGGACCGGGUGGUACUACG [theeternabot_exclusion_MS2_Trp_B_23] | 16.1 nM |  | 16.5 nM | 15.7 nM | 
27 | ACAGGUACGCCUAUUAAAAUAAAACACCUACGAGGACCGGUACGGCCGCCACUCGGGUGACAUGAGGAUCACCCAUGUGGCUAAA [Ceeron] | 101 nM |  | 610 nM | 851 nM | 
28 | AUGCCUAGUGGAAGGAGCGAGGGUCUUCUCAACAUGAGGAUCACCCAUGUUCUUUUAUACCCUCAGGUAGGUCGCCAUUGGGACA [Anenre] | 27.7 nM | 28.8 nM | 33.6 nM | 25.7 nM | 34.8 nM
29 | AGCUCGCGUCCUCAAGCGUCAAAGACGCGUCGAGGACCGGUACGGCCGCCACUCGACCUGAGGAUCACCCAGGUUUAAGCGAGCA [TrypAX 6 #SwitchBubble #AlternativeMS2 #MS2Late #CuTurnoff] | 12.7 nM | 17.8 nM | 20 nM | 18.1 nM | 115 nM
30 | CCUAUGCAGUCGGCCGCCACUGAAAACAGCCUCAAAAUAAAUAUAACAUGAGGAUCACCCAUGUACAGGACCGGGACUGUAUAGG [Ex Tryptophan B 11] | 81 nM |  | 200 nM | 180 nM | 
31 | GAUUUAACAAAAGUUGGAUCAGUGGGUGAACGAGGACCGGUACGGCCGCCACUCGGACAUGAGGAUCACCCAUGUCCAUGUGAAA [AstrosExyTryA#19] | 47.2 nM | 129 nM | 167 nM | 121 nM | 77.1 nM
32 | CUAAGAGUAGGAAGGAGCGACAUGAGGAUCACCCAUGUGGCUCUCAUGGCCCGGGUCUUAUGUCAGGUAGGUCGCCUACUGUUUA [Solave] | 13.6 nM | 14.4 nM | 21.9 nM | 17.1 nM | 14.1 nM
33 | CGAUACGUAACUGAUACCAGUGUACUGACAUGAGGAUCACCCAUGUUGGGUUUUGUUGUACACCCUUGGCAGCAGAAUCGUAUCG [AstrosExyTheB#18] | 52.1 nM |  | 77.5 nM |  | 59.9 nM
34 | CUAUAUAUAGCGGCCGCCACUUACUCAUGAGGUAACAACAUGAGGAUCACCCAUGUUUGAGGAUCAAGGACCGGGCUAUAUAUAG [AstrosSSTryB#4] | 28.1 nM |  | 33.5 nM | 33.2 nM | 
35 | AAUCAUGGAAACAUGACAUGAGGGUUACUCCGAGGACCGGUACGGCCGCCACUCGCGAGGAGGCGGACAUGAGGAUCACCCAUGU [#04 Tryptophan A Same State] | 32.4 nM | 392 nM | 240 nM | 260 nM | 41.6 nM
36 | AGACAUGAGGAUCACCCAUGUAGCAUGGAUACCAGAUGUAGAUUAGUCCCUUGGCAGCUGUGGUAAAGUGAUGCAUUGCUCCUAG [Exclusion - Theophylline A (Freestyle 3)] | 35.2 nM |  | 55.3 nM |  | 38.8 nM
37 | AAACAUGAGGAUCACCCAUGUUCUCCUGUCCGAGGACCGGUACGGCCGCCACUCGGUUCUCGGGAGGAUGGUCAAAGACUAUCCA [Omei Trp A SS B v8] | 12 nM |  | 16.9 nM | 13.5 nM | 
38 | ACUAGUUGUGCAGAUACCAGACAUGAGGAUCACCCAUGUUUGGGUUGUUCGCAACUUCCUGUCCCUUGGCAGCUGUACAUCUAGA [Omei Theo B Exc v5] | 18.9 nM |  | 46.9 nM |  | 24.3 nM

Source: the supplement of paper PMC9170038
